Measured values published in patent US20090054327A1.

Columns and labels:
[1] = target: actin filaments; assay: F-actin high-speed co-sedimentation, direct comparison with dystrophin
[2] = target: actin filaments; assay: F-actin high-speed co-sedimentation

Row | extent of lateral association with actin filaments (stoichiometry) (actin monomers per utrophin molecule) [1] | Bmax (actin monomers per dystrophin molecule) [2] | Kd [2] | Substance
1 | 14 |  |  | full-length recombinant utrophin (from UniProt G3V7L1 1-3418)
2 |  | 24 | 400 nM | recombinant full-length mouse dystrophin (from UniProt P11531 1-3678)
